Earlier results, collected in PMC6197867.

Tests used:
[1] = target: SMA light chain variable domain VL (Homo sapiens) (UniProt P06312)
[2] = target: LEN light chain variable domain VL (Homo sapiens) (UniProt P06312)

SMA light chain variable domain VL (from UniProt P06312)
Kd [1]: 40 µM

LEN light chain variable domain VL (from UniProt P06312)
Kd [2]: 10 µM
